From publication PMC4595758, “Redox-switch regulatory mechanism of thiolase from Clostridium acetobutylicum” (Nature Communications, 2015)
Residue numbers refer to the chain shown, from its start. Numbers in names are those of the source.

B1: Clostridium acetobutylicum thiolase (CaTHL), wild type, oxidized form (enzyme, UniProt P45359 1-392, looked up)
chain: MKEVVIASAVRTAIGSYGKSLKDVPAVDLGATAIKEAVKKAGIKPEDVNEVILGNVLQAGLGQNPARQASFKAGLPVEIPAMTINKVCGSGLRTVSLAAQIIKAGDADVIIAGGMENMSRAPYLANNARWGYRMGNAKFVDEMITDGLWDAFNDYHMGITAENIAERWNISREEQDEFALASQKKAEEAIKSGQFKDEIVPVVIKGRKGETVVDTDEHPRFGSTIEGLAKLKPAFKKDGTVTAGNASGLNDCAAVLVIMSAEKAKELGVKPLAKIVSYGSAGVDPAIMGYGPFYATKAAIEKAGWTVDELDLIESNEAFAAQSLAVAKDLKFDMNKVNVNGGAIALGHPIGASGARILVTLVHAMQKRDAKKGLATLCIGGGQGTAILLEKC
notes: Thiolase (acetyl-CoA acetyltransferase) of Clostridium acetobutylicum, amino acid residues 1-392, amplified from the chromosome and cloned into pET30a; In the crystal (oxidized form) a disulfide bond joins Cys88 and Cys378, and residues 280-292 are disordered; Two molecules per asymmetric unit; the tetramer is generated by crystallographic symmetry; also called C. acetobutylicum thiolase; type II …
B2: Clostridium acetobutylicum thiolase C378S mutant (reduced form of CaTHL) (enzyme, UniProt P45359 1-392, looked up)
chain: B1 chain with C378S
notes: Thiolase (acetyl-CoA acetyltransferase) of Clostridium acetobutylicum, amino acid residues 1-392, with the C378S mutation made by site-directed mutagenesis; Crystallized with 10 mM DTT; For the CoA complex the crystals were soaked with 30 mM CoA for 30 min; also called CaTHL C378S mutant

Assays:
[1] = molecular target: the molecule itself; assay: crystal structure; oxidized form of CaTHL, 1.77 Å, space group P2(1)2(1)2, two molecules per asymmetric unit, tetramer generated by crystallographic symmetry; crystals from 100 mM phosphate-citrate pH 4.2, 10% PEG 3,350, 200 mM sodium chloride at 293 K
[2] = molecular target: the molecule itself; assay: crystal structure; CaTHL C378S (reduced form, 10 mM DTT) crystals soaked with 30 mM CoA for 30 min, 1.90 Å, space group P2(1)2(1)2

| Protein | stoichiometry N [1] | binding result [2] |
| --- | --- | --- |
| B1 | 4 |  |
| B2 |  | binds |
